Test results reported in US20250034275A1 (CHIA TAI TIANQING PHARMACEUTICAL GROUP, published 2025).
Like-named read-outs stand apart in the source and are kept apart here.

How the values were obtained:
[1] = target: human Trop-2 (on the surface of human cell lines) (human) (UniProt P09758); assay: cell-based or functional assay
[2] = target: human Trop-2 (on the surface of human cell lines) (human) (UniProt P09758); assay: flow cytometry, HCC38 cells
[3] = target: human Trop-2 (on the surface of human cell lines) (human) (UniProt P09758); assay: flow cytometry, HCC38 cells; remark: listed apart in the source
[4] = target: human Trop-2 (on the surface of human cell lines) (human) (UniProt P09758); assay: flow cytometry, HCC38 cells; remark: listed apart in the source
[5] = target: human Trop-2 (on the surface of human cell lines) (human) (UniProt P09758); assay: flow cytometry, HCC1806 cells
[6] = target: human Trop-2 (on the surface of human cell lines) (human) (UniProt P09758); assay: flow cytometry, HCC1806 cells; remark: listed apart in the source
[7] = target: human Trop-2 (on the surface of human cell lines) (human) (UniProt P09758); assay: flow cytometry, OVCAR-3 cells
[8] = target: human Trop-2 (on the surface of human cell lines) (human) (UniProt P09758); assay: flow cytometry, HCC1806 cells; remark: listed apart in the source
[9] = target: human Trop-2 (on the surface of human cell lines) (human) (UniProt P09758); assay: flow cytometry, OVCAR-3 cells; remark: listed apart in the source
[10] = target: Macaque Trop-2-His (macaque); assay: ELISA, plate-coated macaque Trop-2-His
[11] = target: Macaque Trop-2-His (macaque); assay: ELISA, plate-coated macaque Trop-2-His; remark: listed apart in the source
[12] = target: Macaque Trop-2-His (macaque); assay: ELISA, plate-coated macaque Trop-2-His; remark: listed apart in the source
[13] = target: human Trop-2 (on the surface of human cell lines) (human) (UniProt P09758); assay: flow cytometry, PC-3 cells, antibody at 3 ug/mL
[14] = target: T1, human Trop-2-His (human, UniProt P09758 27-274, limits assumed); assay: ELISA, plate-coated human Trop-2-His
T1 construct: by analogy with the macaque construct it is probably the extracellular domain with a His tag; also called Trop-2-His protein
T1 sequence: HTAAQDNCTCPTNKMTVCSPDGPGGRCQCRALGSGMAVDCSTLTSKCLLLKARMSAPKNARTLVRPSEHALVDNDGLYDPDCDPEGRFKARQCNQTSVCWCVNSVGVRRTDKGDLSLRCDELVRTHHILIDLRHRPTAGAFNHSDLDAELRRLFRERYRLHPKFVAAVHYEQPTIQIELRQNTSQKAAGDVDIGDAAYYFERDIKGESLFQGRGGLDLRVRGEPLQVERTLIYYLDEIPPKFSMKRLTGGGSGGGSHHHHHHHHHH

[15] = target: human Trop-2 (on the surface of human cell lines) (human) (UniProt P09758); assay: flow cytometry, HCC38 cells, antibody at 3 ug/mL
[16] = target: human Trop-2 (on the surface of human cell lines) (human) (UniProt P09758); assay: flow cytometry, HUVEC cells, antibody at 3 ug/mL
[17] = target: human Trop-2 (on the surface of human cell lines) (human) (UniProt P09758); assay: flow cytometry, Capan-1 cells, antibody at 3 ug/mL
[18] = target: human Trop-2 (on the surface of human cell lines) (human) (UniProt P09758); assay: flow cytometry, HCC1806 cells, antibody at 3 ug/mL
[19] = target: human Trop-2 (on the surface of human cell lines) (human) (UniProt P09758); assay: flow cytometry, OVCAR-3 cells, antibody at 3 ug/mL
[20] = target: human Trop-2 (on the surface of human cell lines) (human) (UniProt P09758); assay: flow cytometry, NCI-H322 cells, antibody at 3 ug/mL
[21] = target: T1, human Trop-2-His; assay: SPR (Biacore 8K), antibody captured, Trop-2-His as analyte
Procedure, shortened: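 Antibody captured on anti-human IgG-coated CM5 chip; human Trop-2-His flowed as analyte with real-time association/dissociation recording, 3M MgCl₂ regeneration. Double-subtracted curves fit to Langmuir 1:1 model giving ka, kd and KD.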

B1: TINA (antibody, INN chains, looked up, V domains shown)
VH: QVQLVQSGAEVKKPGASVKVSCKASGYTFTTAGMQWVRQAPGQGLEWMGWINTHSGVPKYAEDFKGRVTISADTSTSTAYLQLSSLKSEDTAVYYCARSGFGSSYWYFDVWGQGTLVTVSS
VL: DIQMTQSPSSLSASVGDRVTITCKASQDVSTAVAWYQQKPGKAPKLLIYSASYRYTGVPSRFSGSGSGTDFTLTISSLQPEDFAVYYCQQHYITPLTFGQGTKLEIK
Q: What does the source list for B1?
A: ADCC reporter (Jurkat-CD16a v158-NFAT-luciferase), target cell H322, EC50 [1]: 0.27 nM; ADCC reporter (Jurkat-CD16a v158-NFAT-luciferase), target cell HCC1806, EC50 [1]: 0.46 nM; ADCC, PBMC killing (LDH), H322, EC50 [1]: 0.02 nM; ADCC, PBMC killing (LDH), H322, Maximum killing (%) [1]: 49.8%; ADCC, PBMC killing (LDH), HCC1806, EC50 [1]: 0.07 nM; ADCC, PBMC killing (LDH), HCC1806, Maximum killing (%) [1]: 38.5%; EC50 [2]: 1.21 nM; EC50 [3]: 0.79 nM; EC50 [4]: 1.04 nM; EC50 [5]: 1.44 nM; EC50 [6]: 0.84 nM; EC50 [7]: 1.29 nM; EC50 [8]: 0.73 nM; EC50 [9]: 1.28 nM; EC50 [10]: 0.106 nM; EC50 [11]: 0.063 nM; EC50 [12]: 0.046 nM; MFI [13]: 68500; Positive rate (%) [13]: 69.1%; Ratio (MFI of TINA to MFI of the IgG1 control) [13]: 7.7; EC50 [14]: 0.083 nM; EC50 ([14]; record 2): 0.166 nM; MFI [15]: 3.85e+06; Positive rate (%) [15]: 99.3%; Ratio (MFI of TINA to MFI of the IgG1 control) [15]: 119; MFI [16]: 125000; Positive rate (%) [16]: 22.9%; Ratio (MFI of TINA to MFI of the IgG1 control) [16]: 6.1; MFI [17]: 1.21e+06; Positive rate (%) [17]: 98.4%; Ratio (MFI of TINA to MFI of the IgG1 control) [17]: 18.4; MFI [18]: 1.66e+06; Positive rate (%) [18]: 99.9%; Ratio (MFI of TINA to MFI of the IgG1 control) [18]: 102; MFI [19]: 182000; Positive rate (%) [19]: 99%; Ratio (MFI of TINA to MFI of the IgG1 control) [19]: 15.4; MFI [20]: 2.83e+06; Positive rate (%) [20]: 100%; Ratio (MFI of TINA to MFI of the IgG1 control) [20]: 133; Kd [21]: 12.5 nM; koff [21]: 0.00239 s⁻¹; kon [21]: 191000 M⁻¹ s⁻¹
